# Key:
# Test in all cases: cell-based or functional assay
# [1] = target: HIV-1 Env of pseudovirus 6041.v3.c23 (HIV-1)
# [2] = target: HIV-1 Env of pseudovirus BF1266.431a (HIV-1)
# [3] = target: HIV-1 Env of pseudovirus 620345.c01 (HIV-1)
# [4] = target: HIV-1 Env of pseudovirus QH0692.42 (HIV-1)
# [5] = target: HIV-1 Env of pseudovirus P1981_C5_3 (HIV-1)
# [6] = target: HIV-1 Env of pseudovirus 191084 B7-19 (HIV-1)
# [7] = target: HIV-1 Env of pseudovirus T257-31 (HIV-1)
# [8] = target: HIV-1 Env of pseudovirus Ce703010054_2A2 (HIV-1)
# [9] = target: HIV-1 Env of pseudovirus 1054_07_TC4_1499 (HIV-1)
# [10] = target: HIV-1 Env of pseudovirus T250-4 (HIV-1)
# [11] = target: HIV-1 Env of pseudovirus A07412M1.vrc12 (HIV-1)
# [12] = target: HIV-1 Env of pseudovirus ZM53M.PB12 (HIV-1)
# [13] = target: HIV-1 Env of pseudovirus ZM233M.PB6 (HIV-1)
# [14] = target: HIV-1 Env of pseudovirus 191955_A11 (HIV-1)
# [15] = target: HIV-1 Env of pseudovirus 1394C9G1(Rev-) (HIV-1)
# [16] = target: HIV-1 Env of pseudovirus AC10.0.29 (HIV-1)
# [17] = target: HIV-1 Env of pseudovirus ZM135M.PL10a (HIV-1)
# [18] = target: HIV-1 Env of pseudovirus 89-F1_2_25 (HIV-1)
# [19] = target: HIV-1 Env of pseudovirus Q23.17 (HIV-1)
# [20] = target: HIV-1 Env of pseudovirus 928-28 (HIV-1)
# [21] = target: HIV-1 Env of pseudovirus SC422661.8 (HIV-1)
# [22] = target: HIV-1 Env of pseudovirus CNE19 (HIV-1)
# [23] = target: HIV-1 Env of pseudovirus ZM249M.PL1 (HIV-1)
# [24] = target: HIV-1 Env of pseudovirus BJOX015000.11.5 (HIV-1)
# [25] = target: HIV-1 Env of pseudovirus Du172.17 (HIV-1)
# [26] = target: HIV-1 Env of pseudovirus 3016.v5.c45 (HIV-1)
# [27] = target: HIV-1 Env of pseudovirus Du422.1 (HIV-1)
# [28] = target: HIV-1 Env of pseudovirus CNE21 (HIV-1)
# [29] = target: HIV-1 Env of pseudovirus C3347.c11 (HIV-1)
# [30] = target: HIV-1 Env of pseudovirus Ce1176_A3 (HIV-1)
# [31] = target: HIV-1 Env of pseudovirus 62357_14_D3_4589 (HIV-1)
# [32] = target: HIV-1 Env of pseudovirus CNE53 (HIV-1)
# [33] = target: HIV-1 Env of pseudovirus THRO4156.18 (HIV-1)
binder,measurement,setting,value
"N49P23 (antibody, V domains shown) VH: QVRLVQSGAGARKTGASMKLSCSTSGYTFTTHHGHFINWVRQARGQGLEWMGWMNPMTGQMNIEGKFQGRVTLTRDIYSDTAYMEMTRLTTGDTGTYYCARGDFGQNYPFHYWGQGSLVIVSS VL: LSALTQPASVSGSPGQSVTISCSGTNRYLVSWYQQHPDKAPKLIIYDDNKRPSGISDRFSASRPDDTASLTISGLQTGDEATYWCASYERFGGGTRLTVLS",IC50,[1],7.47 µg/mL
same,IC80,[1],> 50 µg/mL
same,MPI,[1],63
same,IC50,[2],0.083 µg/mL
same,IC80,[2],0.44 µg/mL
same,MPI,[2],99
same,IC50,[3],> 50 µg/mL
same,IC80,[3],> 50 µg/mL
same,MPI,[3],0
same,IC50,[4],0.557 µg/mL
same,IC80,[4],2.51 µg/mL
same,MPI,[4],100
same,IC50,[5],0.096 µg/mL
same,IC80,[5],0.264 µg/mL
same,MPI,[5],100
same,IC50,[6],0.013 µg/mL
same,IC80,[6],0.043 µg/mL
same,MPI,[6],100
same,IC50,[7],0.178 µg/mL
same,IC80,[7],1.17 µg/mL
same,MPI,[7],100
same,IC50,[8],> 50 µg/mL
same,IC80,[8],> 50 µg/mL
same,MPI,[8],35
same,IC50,[9],0.272 µg/mL
same,IC80,[9],1.21 µg/mL
same,MPI,[9],100
same,IC50,[10],> 50 µg/mL
same,IC80,[10],> 50 µg/mL
same,MPI,[10],0
same,IC50,[11],0.114 µg/mL
same,IC80,[11],0.83 µg/mL
same,MPI,[11],97
same,IC50,[12],0.135 µg/mL
same,IC80,[12],0.651 µg/mL
same,MPI,[12],100
same,IC50,[13],> 50 µg/mL
same,IC80,[13],> 50 µg/mL
same,MPI,[13],14
same,IC50,[14],> 50 µg/mL
same,IC80,[14],> 50 µg/mL
same,MPI,[14],31
same,IC50,[15],> 50 µg/mL
same,IC80,[15],> 50 µg/mL
same,MPI,[15],34
same,IC50,[16],> 50 µg/mL
same,IC80,[16],> 50 µg/mL
same,MPI,[16],0
same,IC50,[17],> 50 µg/mL
same,IC80,[17],> 50 µg/mL
same,MPI,[17],36
same,IC50,[18],> 50 µg/mL
same,IC80,[18],> 50 µg/mL
same,MPI,[18],5
same,IC50,[19],0.01 µg/mL
same,IC80,[19],0.046 µg/mL
same,MPI,[19],100
same,IC50,[20],0.021 µg/mL
same,IC80,[20],0.122 µg/mL
same,MPI,[20],100
same,IC50,[21],0.069 µg/mL
same,IC80,[21],0.245 µg/mL
same,MPI,[21],100
same,IC50,[22],> 50 µg/mL
same,IC80,[22],> 50 µg/mL
same,MPI,[22],40
same,IC50,[23],> 50 µg/mL
same,IC80,[23],> 50 µg/mL
same,MPI,[23],2
same,IC50,[24],> 50 µg/mL
same,IC80,[24],> 50 µg/mL
same,MPI,[24],0
same,IC50,[25],> 50 µg/mL
same,IC80,[25],> 50 µg/mL
same,MPI,[25],45
same,IC50,[26],0.027 µg/mL
same,IC80,[26],0.092 µg/mL
same,MPI,[26],100
same,IC50,[27],> 50 µg/mL
same,IC80,[27],> 50 µg/mL
same,MPI,[27],4
same,IC50,[28],> 50 µg/mL
same,IC80,[28],> 50 µg/mL
same,MPI,[28],0
same,IC50,[29],0.007 µg/mL
same,IC80,[29],0.032 µg/mL
same,MPI,[29],100
same,IC50,[30],0.297 µg/mL
same,IC80,[30],1.38 µg/mL
same,MPI,[30],100
same,IC50,[31],0.057 µg/mL
same,IC80,[31],0.76 µg/mL
same,MPI,[31],95
same,IC50,[32],0.026 µg/mL
same,IC80,[32],0.095 µg/mL
same,MPI,[32],100
same,IC50,[33],1.98 µg/mL
same,IC80,[33],10.7 µg/mL
same,MPI,[33],97

# From US20230002480A1
